# Laboratory results: EP4036575A1
# Target: mouse recombinant His-calmodulin (mouse), P0DP26
binder,measurement,value
"INLKALAALAKKIL (modifications not checked) [Mastoparan, P01514 1-14]",Kd,1.2 nM
